Assay results as given in the supplement of paper PMC9112550, “Optimization of the antimicrobial peptide Bac7 by deep mutational scanning” (BMC Biology, 2022).

Test system: Escherichia coli TOP10
Assay: shrunken log2 fold change of peptide-encoding DNA abundance (4.5 h post-induction vs induction); higher = less antimicrobial activity (less host growth inhibition)
Details: time post-induction: 4.5 h; library: site-saturation at positions 5, 18, 19, 20
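Further: peptides expressed intracellularly from a pBAD plasmid library in pooled LB shake-flask culture, induced with 0.3% L-arabinose, DNA abundance read by NGS, three biological replicates, DESeq2 with apeglm shrinkage.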

Sequence: RRIRARPPRLPRPRPRPSFVPRP
- shrunken log2 fold change: 0.0934

Sequence: RRIRHRPPRLPRPRPRPLNMPRP
- shrunken log2 fold change: -1.26

Sequence: RRIRKRPPRLPRPRPRPLRQPRP
- shrunken log2 fold change: 0.00205

Sequence: RRIRERPPRLPRPRPRPQPIPRP
- shrunken log2 fold change: 0.0322

Sequence: RRIRLRPPRLPRPRPRPEWVPRP
- shrunken log2 fold change: 0.36

Sequence: RRIRWRPPRLPRPRPRPRTNPRP
- shrunken log2 fold change: 0.0699

Sequence: RRIRPRPPRLPRPRPRPFSKPRP
- shrunken log2 fold change: -0.0785

Sequence: RRIRRRPPRLPRPRPRPSTIPRP
- shrunken log2 fold change: -0.121

Sequence: RRIRMRPPRLPRPRPRPCWLPRP
- shrunken log2 fold change: -0.0281

Sequence: RRIRRRPPRLPRPRPRPMGIPRP
- shrunken log2 fold change: 0.0313

Sequence: RRIRGRPPRLPRPRPRPWMYPRP
- shrunken log2 fold change: -0.0352

Sequence: RRIRCRPPRLPRPRPRPFNSPRP
- shrunken log2 fold change: 0.101

Sequence: RRIRVRPPRLPRPRPRPLHNPRP
- shrunken log2 fold change: -0.143

Sequence: RRIRRRPPRLPRPRPRPEHFPRP
- shrunken log2 fold change: 0.301

Sequence: RRIRTRPPRLPRPRPRPYTDPRP
- shrunken log2 fold change: -0.448

Sequence: RRIRQRPPRLPRPRPRPHFRPRP
- shrunken log2 fold change: 0.092

Sequence: RRIRSRPPRLPRPRPRPPYWPRP
- shrunken log2 fold change: 0.3

Sequence: RRIRHRPPRLPRPRPRPIQFPRP
- shrunken log2 fold change: -0.482

Sequence: RRIRMRPPRLPRPRPRPYSCPRP
- shrunken log2 fold change: -0.706

Sequence: RRIRHRPPRLPRPRPRPLWVPRP
- shrunken log2 fold change: -0.142

Sequence: RRIRCRPPRLPRPRPRPSIWPRP
- shrunken log2 fold change: -0.342

Sequence: RRIRMRPPRLPRPRPRPEFMPRP
- shrunken log2 fold change: 0.656

Sequence: RRIRGRPPRLPRPRPRPVYPPRP
- shrunken log2 fold change: -0.129

Sequence: RRIRCRPPRLPRPRPRPFNHPRP
- shrunken log2 fold change: -0.427

Sequence: RRIRHRPPRLPRPRPRPHRFPRP
- shrunken log2 fold change: -0.162

Sequence: RRIRFRPPRLPRPRPRPTWEPRP
- shrunken log2 fold change: -0.0897

Sequence: RRIRVRPPRLPRPRPRPEIPPRP
- shrunken log2 fold change: 0.054

Sequence: RRIRWRPPRLPRPRPRPNYRPRP
- shrunken log2 fold change: -0.034

Sequence: RRIRGRPPRLPRPRPRPPGEPRP
- shrunken log2 fold change: 1.14

Sequence: RRIRYRPPRLPRPRPRPRICPRP
- shrunken log2 fold change: 0.00835

Sequence: RRIRNRPPRLPRPRPRPCMDPRP
- shrunken log2 fold change: -0.129

Sequence: RRIRDRPPRLPRPRPRPFIVPRP
- shrunken log2 fold change: -0.193

Sequence: RRIRDRPPRLPRPRPRPYQDPRP
- shrunken log2 fold change: -0.00141

Sequence: RRIRARPPRLPRPRPRPPANPRP
- shrunken log2 fold change: 3.4

Sequence: RRIRARPPRLPRPRPRPVKRPRP
- shrunken log2 fold change: 0.138

Sequence: RRIRARPPRLPRPRPRPYMTPRP
- shrunken log2 fold change: -0.256

Sequence: RRIRMRPPRLPRPRPRPRQPPRP
- shrunken log2 fold change: 0.805

Sequence: RRIRCRPPRLPRPRPRPCWPPRP
- shrunken log2 fold change: -0.0967

Sequence: RRIRGRPPRLPRPRPRPQGWPRP
- shrunken log2 fold change: 1.04

Sequence: RRIRFRPPRLPRPRPRPKKTPRP
- shrunken log2 fold change: 0.0466

Sequence: RRIRRRPPRLPRPRPRPQWQPRP
- shrunken log2 fold change: 0.435

Sequence: RRIRVRPPRLPRPRPRPNLQPRP
- shrunken log2 fold change: 0.0671

Sequence: RRIRVRPPRLPRPRPRPDGEPRP
- shrunken log2 fold change: 0.487

Sequence: RRIRNRPPRLPRPRPRPKAIPRP
- shrunken log2 fold change: -0.0372

Sequence: RRIRHRPPRLPRPRPRPDLGPRP
- shrunken log2 fold change: 0.0527

Sequence: RRIRTRPPRLPRPRPRPCQIPRP
- shrunken log2 fold change: 0.0623

Sequence: RRIRIRPPRLPRPRPRPSLRPRP
- shrunken log2 fold change: -0.72

Sequence: RRIRGRPPRLPRPRPRPDLLPRP
- shrunken log2 fold change: 1.51

Sequence: RRIRARPPRLPRPRPRPRHHPRP
- shrunken log2 fold change: 0.0585

Sequence: RRIRHRPPRLPRPRPRPWRTPRP
- shrunken log2 fold change: -0.229
